Measurements reported in PMC3642082 (PLoS Pathogens, 2013).

B1: JRFL gp120 monomer (near full-length gp120 monomeric construct) (natural protein)
chain: not shown
notes: also called monomeric gp120
B2: PGT123 Fab (Fab, V domains shown)
VH: QLHLQESGPGLVKPPETLSLTCSVSGASINDAYWSWIRQSPGKRPEWVGYVHHSGDTNYNPSLKRRVTFSLDTAKNEVSLKLVDLTAADSATYFCARALHGKRIYGIVALGELFTYFYMDVWGKGTAVTVSS
VL: SSMSVSPGETAKISCGKESIGSRAVQWYQQKPGQPPSLIIYNNQDRPAGVPERFSASPDFRPGTTATLTITNVDAEDEADYYCHIYDARGGTNWVFDRGTTLTVL
B3: PGT121 Fab (Fab, V domains shown)
VH: QMQLQESGPGLVKPSETLSLTCSVSGASISDSYWSWIRRSPGKGLEWIGYVHKSGDTNYSPSLKSRVNLSLDTSKNQVSLSLVAATAADSGKYYCARTLHGRRIYGIVAFNEWFTYFYMDVWGNGTQVTVSS
VL: DISVAPGETARISCGEKSLGSRAVQWYQHRAGQAPSLIIYNNQDRPSGIPERFSGSPDSPFGTTATLTITSVEAGDEADYYCHIWDSRVPTKWVFGGGTTLTVL
B4: PGT122 Fab (Fab, V domains shown)
VH: QVHLQESGPGLVKPSETLSLTCNVSGTLVRDNYWSWIRQPLGKQPEWIGYVHDSGDTNYNPSLKSRVHLSLDKSKNLVSLRLTGVTAADSAIYYCATTKHGRRIYGVVAFKEWFTYFYMDVWGKGTSVTVSS
VL: VSVAPGQTARITCGEESLGSRSVIWYQQRPGQAPSLIIYNNNDRPSGIPDRFSGSPGSTFGTTATLTITSVEAGDEADYYCHIWDSRRPTNWVFGEGTTLIVL

Assays:
soluble CD4 = biological target: T1, soluble CD4 (UniProt P01730); experiment: ITC; settings: both partners purified
T1 construct: also called sCD4

[1] = biological target: T2, JRFL gp120 monomer expressed in HEK 293S cells (HIV-1 clade B, isolate JR-FL, UniProt Q75760, strain); experiment: ITC; settings: both partners purified
T2 construct: also called gp120 with immature oligomannose glycans

Binder | Kd (soluble CD4) | binding result [1]
B1 | 21 nM | 
B2 |  | binds
B3 |  | binds
B4 |  | binds
